Data: patent US7202329 (MYRIAD GENETICS, dated 2007)

T1: hypothetical protein FLJ10540 (aa 1-140) (UniProt Q53EZ4 1-140)
T1 construct: range 1-140
T1 sequence (looked up): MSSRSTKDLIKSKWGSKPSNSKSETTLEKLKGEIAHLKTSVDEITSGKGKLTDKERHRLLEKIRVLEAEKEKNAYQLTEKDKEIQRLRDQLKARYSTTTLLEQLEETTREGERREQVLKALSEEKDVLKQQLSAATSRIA

T2: Protein kinase C and casein kinase substrate (PACSIN2) (aa 174-367) (UniProt Q9UNF0 174-367)
T2 construct: range 174-367
T2 sequence (looked up): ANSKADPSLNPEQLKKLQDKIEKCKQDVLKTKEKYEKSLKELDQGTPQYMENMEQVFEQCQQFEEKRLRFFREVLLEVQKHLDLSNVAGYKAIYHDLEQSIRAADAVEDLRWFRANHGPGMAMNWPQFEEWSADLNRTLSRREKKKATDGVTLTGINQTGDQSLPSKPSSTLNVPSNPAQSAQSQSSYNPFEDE

T3: Death associated protein 5 (DAP5) (aa 16-157) (UniProt P78344 16-157)
T3 construct: range 16-157
T3 sequence (looked up): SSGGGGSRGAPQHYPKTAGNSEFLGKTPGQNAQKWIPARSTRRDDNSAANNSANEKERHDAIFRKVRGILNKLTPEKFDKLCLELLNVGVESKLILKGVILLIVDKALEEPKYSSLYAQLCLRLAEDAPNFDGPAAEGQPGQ

T4: Golgi autoantigen (Golgin-84) (aa 198-501) (UniProt Q8TBA6 198-501)
T4 construct: range 198-501
T4 sequence (looked up): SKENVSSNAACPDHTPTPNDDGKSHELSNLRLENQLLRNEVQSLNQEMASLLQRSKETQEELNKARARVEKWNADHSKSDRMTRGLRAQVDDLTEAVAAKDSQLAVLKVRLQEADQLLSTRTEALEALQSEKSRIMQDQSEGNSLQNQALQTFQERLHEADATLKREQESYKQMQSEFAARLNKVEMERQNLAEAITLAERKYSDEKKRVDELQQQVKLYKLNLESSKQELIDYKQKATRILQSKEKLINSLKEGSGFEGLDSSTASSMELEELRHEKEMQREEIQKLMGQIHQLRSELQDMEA

T5: VPS28 protein (aa 9-211) (human, UniProt Q9UK41 9-211)
T5 construct: range 9-211
T5 sequence (looked up): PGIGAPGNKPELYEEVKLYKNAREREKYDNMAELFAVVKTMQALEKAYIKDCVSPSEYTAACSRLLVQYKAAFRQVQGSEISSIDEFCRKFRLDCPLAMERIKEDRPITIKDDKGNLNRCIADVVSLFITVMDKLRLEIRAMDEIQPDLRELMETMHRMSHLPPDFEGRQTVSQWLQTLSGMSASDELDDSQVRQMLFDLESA

T6: Cytoplasmic linker 2 (CYLN2) (aa 607-947) (UniProt Q9UDT6 607-947)
T6 construct: also called CLIP-115
T6 sequence (looked up): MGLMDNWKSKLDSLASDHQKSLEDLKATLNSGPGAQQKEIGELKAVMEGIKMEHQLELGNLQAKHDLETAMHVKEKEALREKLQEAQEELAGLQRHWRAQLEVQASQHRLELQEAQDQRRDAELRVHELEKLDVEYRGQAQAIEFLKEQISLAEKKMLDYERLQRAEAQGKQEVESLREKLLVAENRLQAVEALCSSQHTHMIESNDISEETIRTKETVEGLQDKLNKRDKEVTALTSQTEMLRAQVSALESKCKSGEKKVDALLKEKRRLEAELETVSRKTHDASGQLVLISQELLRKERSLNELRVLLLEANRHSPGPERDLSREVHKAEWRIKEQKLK

B1: VPS28 protein (aa 10-221) (other, human, UniProt Q9UK41 10-221, looked up)
chain: GIGAPGNKPELYEEVKLYKNAREREKYDNMAELFAVVKTMQALEKAYIKDCVSPSEYTAACSRLLVQYKAAFRQVQGSEISSIDEFCRKFRLDCPLAMERIKEDRPITIKDDKGNLNRCIADVVSLFITVMDKLRLEIRAMDEIQPDLRELMETMHRMSHLPPDFEGRQTVSQWLQTLSGMSASDELDDSQVRQMLFDLESAYNAFNRFLHA
B2: Tsg101 (aa 140-270) (other, human, UniProt Q99816 140-270, looked up)
chain: PVFSRPISASYPPYQATGPPNTSYMPGMPGGISPYPSGYPPNPSGYPGCPYPPGGPYPATTSSQYPSQPPVTTVGPSRDGTISEDTIRASLISAVSDKLRWRMKEEMDRAQAELNALKRTEEDLKKGHQKL
notes: range 140-270
B3: VPS28 protein (aa 27-221) (other, human, UniProt Q9UK41 27-221, looked up)
chain: YKNAREREKYDNMAELFAVVKTMQALEKAYIKDCVSPSEYTAACSRLLVQYKAAFRQVQGSEISSIDEFCRKFRLDCPLAMERIKEDRPITIKDDKGNLNRCIADVVSLFITVMDKLRLEIRAMDEIQPDLRELMETMHRMSHLPPDFEGRQTVSQWLQTLSGMSASDELDDSQVRQMLFDLESAYNAFNRFLHA
B4: Tsg101 (aa 265-391) (other, human, UniProt Q99816 265-390, looked up)
chain: KGHQKLEEMVTRLDQEVAEVDKNIELLKKKDEELSSALEKMENQSENNDIDEVIIPTAPLYKQILNLYAEENAIEDTIFYLGEALRRGVIDLDVFLKHVRLLSRKQFQLRALMQKARKTAGLSDLY
notes: range 265-391
B5: Tsg101 (aa 231-391) (other, human, UniProt Q99816 231-390, looked up)
chain: ISAVSDKLRWRMKEEMDRAQAELNALKRTEEDLKKGHQKLEEMVTRLDQEVAEVDKNIELLKKKDEELSSALEKMENQSENNDIDEVIIPTAPLYKQILNLYAEENAIEDTIFYLGEALRRGVIDLDVFLKHVRLLSRKQFQLRALMQKARKTAGLSDLY
B6: Tsg101 (aa 147-391) (other, human, UniProt Q99816 147-390, looked up)
chain: SASYPPYQATGPPNTSYMPGMPGGISPYPSGYPPNPSGYPGCPYPPGGPYPATTSSQYPSQPPVTTVGPSRDGTISEDTIRASLISAVSDKLRWRMKEEMDRAQAELNALKRTEEDLKKGHQKLEEMVTRLDQEVAEVDKNIELLKKKDEELSSALEKMENQSENNDIDEVIIPTAPLYKQILNLYAEENAIEDTIFYLGEALRRGVIDLDVFLKHVRLLSRKQFQLRALMQKARKTAGLSDLY
notes: range 147-391
B7: Tsg101 (aa 317-391) (other, human, UniProt Q99816 317-390, looked up)
chain: VIIPTAPLYKQILNLYAEENAIEDTIFYLGEALRRGVIDLDVFLKHVRLLSRKQFQLRALMQKARKTAGLSDLY
notes: range 317-391

Tests used:
Test in all cases: yeast two-hybrid
Tsg101 (aa 147-391) = molecular target: B6
[1] = molecular target: T1, hypothetical protein FLJ10540 (aa 1-140)
[2] = molecular target: T2, Protein kinase C and casein kinase …
[3] = molecular target: B1
[4] = molecular target: T7, Chromosome-associated polypeptide HCAP (aa 119-353) (human, UniProt Q9UQE7 119-353)
T7 construct: range 119-353
T7 sequence (Q9UQE7 119-353 limits assumed): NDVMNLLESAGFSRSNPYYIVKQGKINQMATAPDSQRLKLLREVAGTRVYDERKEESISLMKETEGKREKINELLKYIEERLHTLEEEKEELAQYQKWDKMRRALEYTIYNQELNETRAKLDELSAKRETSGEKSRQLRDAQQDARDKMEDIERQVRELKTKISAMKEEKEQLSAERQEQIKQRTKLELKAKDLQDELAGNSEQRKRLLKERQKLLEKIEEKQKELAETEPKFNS

[5] = molecular target: T3, Death associated protein 5 (DAP5) (aa …)
[6] = molecular target: T4, Golgi autoantigen (Golgin-84) (aa …)
VPS28 protein (aa 9-211) = molecular target: T5, VPS28 protein (aa 9-211)
[7] = molecular target: T6, Cytoplasmic linker 2 (CYLN2) (aa …)

B1: binds (Tsg101 (aa 147-391)).

B2: binds [1].

B3: binds (Tsg101 (aa 147-391)).

B4: binds [2]; binds [3]; binds [4]. B4: binds [5].

B5: binds [6]; binds [3]; binds (VPS28 protein (aa 9-211)). B5: binds [7].

B6: binds [6].

B7: binds [3].
